From article PMC314469, “Protein Interaction Networks by Proteome Peptide Scanning” (PLoS Biology, 2004)

T1: Myo5 SH3 (MYO5_YEAST), Q04439
T1 chain: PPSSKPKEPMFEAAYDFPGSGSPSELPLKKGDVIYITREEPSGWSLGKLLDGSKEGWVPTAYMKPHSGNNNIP


Target: T1, Myo5 SH3 (MYO5_YEAST), Q04439
Experiment: SPOT array

Row | normalised SPOT signal, Boehringer light units (BLU); mean over the file's lines of this peptide | Binder
1 | 213 | HPEYLSLPFEPYSF [YLR054C 108-121]
2 | 503 | IFFKLIHPFLPILH [YIR023W 322-335]
3 | 75.9 | GWEPFSLPKDPKVV [YML018C 282-295]
4 | 204 | IARSFTIPFLPKIP [YLR164W 20-33]
5 | 121 | HLDSFSPPFSPSTT [YPL230W 298-311]
6 | 78.1 | HEKLYHNPSLPAQS [YKL217W 53-66]
7 | 124 | KAGSFGAPSSPTSG [YPL179W 199-212]
8 | 53600 | IPLPHQPPPLPIYS [YMR182C 149-162]
9 | 21.6 | IPVGYVTPKFPSLY [YPR153W 14-27]
10 | 240 | IFQSLLHPELPIII [YPR169W 50-63]
11 | 114 | IEITHSEPAIPYRE [YNL163C 742-755]
12 | 151 | HATLYWAPVSPLKS [YLR305C 1420-1433]
13 | 238 | HPHPHPHPHTPTHT [YHR217C 23-36]
14 | 87.4 | GPEFWISPDTPLKF [YJL093C 632-645]
15 | 96.9 | IATMYPIPAYPDLL [YJL127C 53-66]
16 | 246 | HLFHLTTPQDPRLL [YKL191W 249-262]
17 | 114 | GWSTYIPPFNPLEI [YNL088W 836-849]

Row | normalised SPOT signal, Boehringer light units (BLU); mean over the file's lines of this peptide | Binder
18 | 166 | ILVPHLDPIDPWEA [YJR111C 130-143]
19 | 112 | HFLAYTNPRAPGKL [YIL054W 29-42]
20 | 318 | HPIHLQPPVPPVYK [YOR032C 88-101]
21 | 1370 | ILIFLWIPDDPSKA [YJR152W 263-276]
22 | 228 | HAVLLNPPVAPTAE [YPL012W 184-197]
23 | 457 | HPSGLNSPKLPPLP [YNL152W 370-383]
24 | 453 | GWVVYPPPPKPSYN [YML035C 223-236]
25 | 84.8 | IEEGHLDPEAPDKL [YOR301W 105-118]
26 | 147 | HEYNLALPKFPILF [YMR088C 27-40]
27 | 255 | IAGMLMVPESPRFL [YMR011W 241-254]
28 | 162 | GPLLLTVPELPEAD [YLR338W 178-191]
29 | 43600 | IPTSHAPPLPPTAP [YLR337C 317-330]
30 | 180 | IERVWNGPVEPSDE [YIL067C 73-86]
31 | 261 | HLTDLSPPGTPPTM [YMR165C 272-285]
32 | 92.5 | HFNDLQSPAQPQQS [YMR164C 264-277]
33 | 205 | GPIIHPGPEPPRYD [YPR030W 1104-1117]
34 | 122 | HFLSLDPPIDPNNL [YMR075W 283-296]

Further lines, the binder ahead of its results:

Row | Binder | normalised SPOT signal, Boehringer light units (BLU); mean over the file's lines of this peptide
35 | HPYMMVYPMSPPPP [YHL024W 649-662] | 563
36 | KAPYLVQPNVPEKH [YHL002W 140-153] | 131
37 | IAKPYVLPFFPLYA [YEL031W 24-37] | 247
38 | ILQILFEPMPPFNS [YBL037W 656-669] | 200
39 | ILPVLNIPLPPQEK [YER132C 923-936] | 21.6
40 | HLVVWNPPILPQHE [YDR291W 495-508] | 118
41 | ILTLLKMPEVPNSV [YDR395W 823-836] | 172
42 | KAIVWRLPKMPKIK [YFL040W 5-18] | 515
43 | ILSAYNSPKVPADI [YGR175C 270-283] | 81.4
44 | IAESLGVPWEPVDL [YGR088W 547-560] | 143
45 | HAWDMRSPHRPFYS [YDR128W 140-153] | 822
46 | IARPLSVPGSPKVR [YFR015C 646-659] | 383
47 | IEPDFIEPDAPLAA [YGL198W 10-23] | 61.4
48 | HAEAFEDPSIPRIS [YGL195W 985-998] | 325
49 | ILHQLGAPSIPENL [YBL004W 2280-2293] | 174
50 | HEHNYAIPYTPATF [YBR238C 43-56] | 129
51 | IEFDLSKPFTPFQQ [YGL173C 578-591] | 134
52 | HLARYIFPPNPVFH [YBR007C 426-439] | 279
53 | ILVAYGLPVSPDEK [YDR127W 327-340] | 167
54 | ILQELSLPSRPVMP [YGR002C 427-440] | 51.9
55 | GWPVYNYPMQPTTE [YER109C 286-299] | 168
56 | HFYEYVYPSLPFIE [YAL051W 349-362] | 152
57 | IEVPMEYPFKPPKM [YDR177W 56-69] | 384
58 | GPSQFAPPPPPPGV [YCR077C 189-202] | 20400
